Entries after “also recorded” stand apart in the source; their conditions may differ.
Columns and labels:
[1] = tested on: monoclonal antibody B3.11; test: Inhibition of monoclonal antibody B3.11 binding to BSA conjugated to P12-26; conditions: BSA conjugated to P12-26 adsorbed to microwells; inhibitors listed in order of decreasing inhibition
Source text: Antibody recognition of (NANP)3-12-26 by monoclonal antibodies was studied. The antigen, bovine serum albumin (BSA) conjugated to P12-26 was adsorbed to microwells and horseradish peroxidase (HRP) labeled antibody specific for P12-26 added. In the absence of (NANP)3-12-26 or in the presence of P12-26LF, there is no inhibition of monoclonal antibody B3.11 binding.

[2] = molecular target: T1, I-E^d (Mus musculus, UniProt P01904+P01915); test: Gel filtration binding of 125I-labeled peptide to purified Ia (I-E^d)
T1 construct: endogenous in cells
T1 sequence (P01904 26-255): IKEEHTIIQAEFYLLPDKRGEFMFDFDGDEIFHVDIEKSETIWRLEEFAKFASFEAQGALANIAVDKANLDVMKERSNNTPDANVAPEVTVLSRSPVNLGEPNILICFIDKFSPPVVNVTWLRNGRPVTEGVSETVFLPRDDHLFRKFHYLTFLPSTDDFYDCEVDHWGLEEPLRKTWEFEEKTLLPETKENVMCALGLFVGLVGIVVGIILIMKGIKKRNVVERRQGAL
T1 sequence (P01915 27-264 limits assumed): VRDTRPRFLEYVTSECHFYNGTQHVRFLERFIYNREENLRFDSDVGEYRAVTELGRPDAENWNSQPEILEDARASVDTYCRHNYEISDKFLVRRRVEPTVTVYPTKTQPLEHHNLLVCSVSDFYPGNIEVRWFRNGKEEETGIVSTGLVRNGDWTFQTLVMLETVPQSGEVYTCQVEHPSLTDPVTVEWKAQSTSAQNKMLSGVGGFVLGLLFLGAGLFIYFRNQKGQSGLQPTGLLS
Source text: (§1) The peptide P12-26 was modified by the addition of a tyrosine residue to the N-terminus to serve as an acceptor for the ^125 I.
(§2) Ia-molecules were purifed from Nonidet P-40 (NP-40) lysates of A20 (H2^d) or AKTB-1b (H2^k) cells by affinity chromatography using the following monoclonal antibodies: MK-D6 (I-A^d -specific), 10-3-6 (I-A^k -specific) specific) or 14-4-4 (I-E^d/k -specific) coupled to Sepharose 4B beads (Pharmacia Fine Chemicals, Sweden).
(§3) A gel filtration assay was used for determining the degree of association between immunogenic peptides and Ia. The assay is described in: Buus, S. et al., Proceeding of the National Academy of Sciences, U.S.A. (1986) 83:3968, the teaching of which is incorporated herein by reference. Briefly, 40 μmole of purified Ia in 1 percent NP-40/PBS was mixed with 0.2 μmole of ^125 I-labeled peptide (approximately 200,000 cpm for each experiment) and incubated for 48 hours at room temperature to allow for formation of the Ia-peptide complex. The Ia-peptide complexes were separated from free peptide by gel filtration and the percentage of peptide bound to Ia was calculated as the ratio of the ^125 I-labeled peptide in the void volume to the total ^125 I-labeled peptide recovered.

[3] = molecular target: T2, I-A^d (Mus musculus, UniProt P01921+P04228); test: Gel filtration binding of 125I-labeled peptide to purified Ia (I-A^d)
T2 construct: endogenous in cells
T2 sequence (P04228 24-256): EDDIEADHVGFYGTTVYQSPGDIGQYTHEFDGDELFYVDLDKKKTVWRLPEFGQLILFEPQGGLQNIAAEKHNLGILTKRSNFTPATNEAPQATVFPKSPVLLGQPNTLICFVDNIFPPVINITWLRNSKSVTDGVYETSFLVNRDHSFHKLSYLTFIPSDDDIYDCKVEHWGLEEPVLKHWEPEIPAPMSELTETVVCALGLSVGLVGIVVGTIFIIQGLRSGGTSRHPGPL
T2 sequence (P01921 28-265): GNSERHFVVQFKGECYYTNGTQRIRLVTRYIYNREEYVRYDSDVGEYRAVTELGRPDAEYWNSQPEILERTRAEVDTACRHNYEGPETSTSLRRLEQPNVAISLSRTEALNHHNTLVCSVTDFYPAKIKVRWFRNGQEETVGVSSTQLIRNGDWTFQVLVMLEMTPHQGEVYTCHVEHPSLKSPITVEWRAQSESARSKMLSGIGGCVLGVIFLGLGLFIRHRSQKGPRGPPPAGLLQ
Source text: as §1, §2, §3

[4] = tested on: lymph node-derived T-cells from P12-26 immune mice; test: Standard lymph node proliferation assay (thymidine incorporation); type: cell-based; conditions: cultured with 10 μM P12-26
Source text: (§4) The proliferation of these same cultures was not inhibited (75,000 cpm) by a monoclonal antibody, 34-1-4S, which is specific for I-E^d and which inhibits the stimulation of a hemocyanin specific, I-E^d resticted T-cell hybridoma.

[5] = tested on: I-E^d; test: Restriction of peptide-specific T-cell hybrids assayed on L cells expressing I-A^d or I-E^d; type: cell-based, Balb/c mouse; conditions: P12-26: of more than 300 hybrids; myoglobin (P135-147): of 80 hybrids
Source text: That is, they could be stimulated by antigen in the presence of L cells expressing I-A^d, but could not be shown to be stimulated by antigen in the presence of L cells expressing I-E^d.
as §4

[6] = molecular target: T3, I-A^k (Mus musculus, UniProt P01910+P06343); test: Inhibition of binding of 125I-labeled Lysozyme (Hen) (P46-61) to I-A^k; conditions: for Competition with the lysozyme-derived peptide for binding to I-A^k (in words): up to 2500 μM
T3 construct: endogenous in cells
Source text: as §2, §3
For the inhibition assay a dose-range of unlabeled cI P12-26 peptide was added to the incubation mixture of Ia and ^125 I-labeled peptide ([…] μM). The degree of association between Ia and labeled peptide was determined by gel filtration as described in Table 1. The percentage of peptide bound in the absence of inhibitors is 10.6 percent for ovalbumin (323 to 339)/I-A^d; 6.5 percent for myoglobulin 132 to 153)/I-E^d; 21.5 percent for lysozyme (46 to 61)/I-A^k; 2.5 percent for cytochrome C (88 to 104)/I-E^k. The concentration of inhibitory peptide required to obtain a 50 percent inhibition of binding was calculated. Each experiment was repeated three times.

[7] = tested on: monoclonal antibody specific for (NANP)50; test: Inhibition of binding of monoclonal antibody specific for (NANP)50 to (NANP)50; parameters: species or system mice; conditions: radiolabelled (NANP)50 bound to microwells
Source text: The above study was repeated except the antigen was radiolabelled (NANP)50 which was bound to microwells.

[8] = molecular target: T1, I-E^d; test: Inhibition of binding of 125I-labeled Myoglobin (P132-153) to I-E^d; conditions: 125I Myoglobin (P132-153) bound to I-E^d; read-out: Concentration (μM) of P12-26 Required for 50 percent Inhibition
Source text: as §2
as §3, with “Briefly, 40 μmole of purified Ia in 1 percent NP-40/PBS was mixed with 0.2 μmole of ^125 I-labeled peptide (approximately 200,000 cpm for each experiment) and incubated for 48 hours at room temperature to allow for formation of the Ia-peptide complex.” left out
For the inhibition assay a dose-range of unlabeled cI P12-26 peptide was added to the incubation mixture of Ia and ^125 I-labeled peptide (600, 120, 24, ad 48 μM). The degree of association between Ia and labeled peptide was determined by gel filtration as described in Table 1. […] The concentration of inhibitory peptide required to obtain a 50 percent inhibition of binding was calculated. […]

[9] = tested on: T-cell hybridoma DO-11.10; type: cell-based
[10] = molecular target: T3, I-A^k; test: Gel filtration binding of 125I-labeled peptide to purified Ia (I-A^k)
Source text: as §1, §2, §3

## P12-26: derived from the cI protein of bacteriophage lambda (residues 12-26)
[1]
  Inhibition of monoclonal antibody B3.11 binding: Inhibition is observed
[2]
  Binding to the I-E^d molecule (in words): binds most tightly; also recorded: binds best; also recorded: binds exceedingly well
[3]
  Binding to the I-A^d molecule (in words): able to bind to both molecules as expected
[4]
  Proliferation (thymidine incorporation): 68,000 cpm
[5]
  Number of peptide-specific hybrids restricted by I-E^d: none
[6]; 125I Lysozyme (Hen) (P46-61) bound to I-A^k, read-out: Concentration (μM) of P12-26 Required for 50 percent Inhibition
  IC50: > 2500 µM
[6]
  Competition with the lysozyme-derived peptide for binding to I-A^k (in words): is not observed
[6]; listed as P1226
  Competition with the lysozyme-derived peptide for binding to I-A^k (in words): No inhibition of binding was detected
[7]
  Inhibition of binding of monoclonal antibody specific for (NANP)50: did not inhibit binding
[8]
  IC50: 4 µM
[9]
  Stimulation of DO-11.10: Neither of these peptides can stimulate DO-11.10 on its own
[9]; Ova (P324-336) as stimulator, A20 presenting cells, peptide at 50 μM, 24 hrs
  Inhibition of ovalbumin-specific T-cell activation (DO-11.10): act as inhibitors
[10]
  Binding to the I-A^k molecule (in words): not bound; also recorded: inability of P12-26 to bind
